Data as given in US11957716B2 (Immatics Biotechnologies GmbH, priority 2021, dated 2024).

Experiments:
HLA-A*02:01 = HLA-A*02:01 (Homo sapiens, UniProt P04439, D140Y/D185E/D98H/E176V/E277Q/G131W/G231S/I119V/I121R/I166T/I218V/L300P/L318F/N151K/N90K/P208A/P217A/Q86G/Q94H/R138H/R169H/T345S); assay: MHC binding assay, UV-ligand exchange ELISA; conditions: peptide exchange yield, binding to HLA-A*02:01
[1] = system: HLA-A*01:01, HLA-A*02:01, HLA-A*03:01, HLA-A*24:02, HLA-B*07:02, HLA-B*08:01 and HLA-B*44:02; assay: HLA alleles the peptides bind to (Table 7); assay type: binding, human; conditions: allotype from the group HLA-A*01:01, HLA-A*02:01, HLA-A*03:01, HLA-A*24:02, HLA-B*07:02, HLA-B*08:01, HLA-B*44:02
Source text: However, due to similarities in binding pattern such as the relevant anchoring positions some peptides bind to more than one allele, such an overlap is most likely, but not limited to, HLA-A*01 binding peptides also binding to HLA-B*15, HLA-A*03 binding peptides also binding to HLA-A*11, HLA-B*07 binding peptides also binding to HLA-B*35 and HLA-B*51.

HLA-A*24:02 = HLA-A*24:02 (Homo sapiens, UniProt P04439, D101N/D140Y/D185E/E176V/E190D/F33S/G103R/G107R/I119L/I121M/I306V/K335N/L105A/L180Q/L300P/N151K/N90K/Q86E/Q94H/R106L/R138H/R89G/T104I/T345S/V100E/W191G/Y123F); assay: MHC binding assay, UV-ligand exchange ELISA; conditions: peptide exchange yield, binding to HLA-A*24:02

Peptide exchange (HLA-A*02:01) | Peptide exchange (HLA-A*24:02) | Substance | Binders (HLA alleles the peptides according to the invention bind to) [1]
++++ (≥75% = ++++) |  | 4 (IQAPALLKV; listed as Homo sapiens) [compound 4] | HLA-A*02:01
++++ (≥75% = ++++) |  | 9 (LLGVVSHSV; listed as Homo sapiens) [compound 9] | HLA-A*02:01
++++ (≥75% = ++++) |  | 10 (ILMILQPQL; listed as Homo sapiens) [compound 10] | HLA-A*02:01
++++ (≥75% = ++++) |  | 12 (RLQEGLAAL; listed as Homo sapiens) [compound 12] | HLA-A*02:01
++++ (≥75% = ++++) |  | 18 (SLSKLVATV; listed as Homo sapiens) [compound 18] | HLA-A*02:01
+++ (≥50% = +++) |  | 30 (SLKSSILFL; listed as Homo sapiens) [compound 30] | HLA-A*02:01
++++ (≥75% = ++++) |  | 42 (LLSRGILIL; listed as Homo sapiens) [compound 42] | HLA-A*02:01
++++ (≥75% = ++++) |  | 45 (SLFPISLTV; listed as Homo sapiens) [compound 45] | HLA-A*02:01
++++ (≥75% = ++++) |  | 57 (IIIDRILLL; listed as Homo sapiens) [compound 57] | HLA-A*02:01
++ (≥20% = ++) |  | 74 (TLNVLITL; listed as Homo sapiens) [compound 74] | HLA-A*02:01
++++ (≥75% = ++++) |  | 82 (VLQSLQHEL; listed as Homo sapiens) [compound 82] | HLA-A*02:01
 | ++ (20% = ++) | 87 (LHLNPGLSF; listed as Homo sapiens) [compound 87] | HLA-A*24:02
++ (≥20% = ++) |  | 97 (ALIVLHLSL; listed as Homo sapiens) [compound 97] | HLA-A*02:01
++++ (≥75% = ++++) |  | 102 (FLLLEKGGEL; listed as Homo sapiens) [compound 102] | HLA-A*02:01
++++ (≥75% = ++++) |  | 105 (LVFESVVAA; listed as Homo sapiens) [compound 105] | HLA-A*02:01
++++ (≥75% = ++++) |  | 106 (GLLDAFLRL; listed as Homo sapiens) [compound 106] | HLA-A*02:01
+++ (≥50% = +++) |  | 108 (SLQESLPNA; listed as Homo sapiens) [compound 108] | HLA-A*02:01
++++ (≥75% = ++++) |  | 113 (ALGPMAFRV; listed as Homo sapiens) [compound 113] | HLA-A*02:01
 | ++ (20% = ++) | 115 (LWEEKPVCL; listed as Homo sapiens) [compound 115] | HLA-A*24:02
 | ++++ (75% = ++++) | 116 (IYLTKSNLVNM; listed as Homo sapiens) [compound 116] | HLA-A*24:02
++++ (≥75% = ++++) |  | 118 (RLLRLIPIL; listed as Homo sapiens) [compound 118] | HLA-A*02:01
+++ (≥50% = +++) |  | 121 (ILVTAWKGV; listed as Homo sapiens) [compound 121] | HLA-A*02:01
 | ++++ (75% = ++++) | 123 (TYLESSVRI; listed as Homo sapiens) [compound 123] | HLA-A*24:02

Peptide exchange (HLA-A*02:01) | Peptide exchange (HLA-A*24:02) | Substance | Binders (HLA alleles the peptides according to the invention bind to) [1]
+++ (≥50% = +++) |  | 130 (ITPDSIPSV; listed as Homo sapiens) [compound 130] | HLA-A*02:01
 | ++++ (75% = ++++) | 132 (LYLETRSEF; listed as Homo sapiens) [compound 132] | HLA-A*24:02
 | ++++ (75% = ++++) | 133 (KFPPSASEF; listed as Homo sapiens) [compound 133] | HLA-A*24:02
++++ (≥75% = ++++) |  | 142 (YMLEMDNSMKI; listed as Homo sapiens) [compound 142] | HLA-A*02:01
++++ (≥75% = ++++) |  | 145 (HLFSVLSAI; listed as Homo sapiens) [compound 145] | HLA-A*02:01
++++ (≥75% = ++++) |  | 153 (ALNLSRLTV; listed as Homo sapiens) [compound 153] | HLA-A*02:01
 | ++ (20% = ++) | 158 (FQLSGPVTF; listed as Homo sapiens) [compound 158] | HLA-A*24:02
 | +++ (50% = +++) | 160 (EYLGSENVF; listed as Homo sapiens) [compound 160] | HLA-A*24:02
 | +++ (50% = +++) | 163 (LWALAIPSL; listed as Homo sapiens) [compound 163] | HLA-A*24:02
 | ++ (20% = ++) | 164 (SHSSPTVSF; listed as Homo sapiens) [compound 164] | HLA-A*24:02
 | ++++ (75% = ++++) | 165 (FYNPRPPLI; listed as Homo sapiens) [compound 165] | HLA-A*24:02
+++ (≥50% = +++) |  | 167 (FALGPIIKQL; listed as Homo sapiens) [compound 167] | HLA-A*02:01
 | ++++ (75% = ++++) | 173 (IFTGRNAYF; listed as Homo sapiens) [compound 173] | HLA-A*24:02
 | ++++ (75% = ++++) | 177 (SYLKDHLSL; listed as Homo sapiens) [compound 177] | HLA-A*24:02
 | ++++ (75% = ++++) | 180 (QYLTYYPSF; listed as Homo sapiens) [compound 180] | HLA-A*24:02
 | ++++ (75% = ++++) | 183 (VFVISGSHLF; listed as Homo sapiens) [compound 183] | HLA-A*24:02
 | + (10% = +) | 186 (SQIKSPVVF; listed as Homo sapiens) [compound 186] | HLA-A*24:02
++++ (≥75% = ++++) |  | 188 (KLPFFTNFL; listed as Homo sapiens) [compound 188] | HLA-A*02:01
 | ++++ (75% = ++++) | 189 (IWRALGSLF; listed as Homo sapiens) [compound 189] | HLA-A*24:02
 | ++ (20% = ++) | 194 (VLYPSHSSF; listed as Homo sapiens) [compound 194] | HLA-A*24:02
 | ++++ (75% = ++++) | 195 (AWNESSAWLL; listed as Homo sapiens) [compound 195] | HLA-A*24:02
++++ (≥75% = ++++) |  | 200 (GLLGTLRVL; listed as Homo sapiens) [compound 200] | HLA-A*02:01
 | +++ (50% = +++) | 201 (VWILQKVNLAF; listed as Homo sapiens) [compound 201] | HLA-A*24:02

Substance | Peptide exchange (HLA-A*02:01) | Peptide exchange (HLA-A*24:02) | Binders (HLA alleles the peptides according to the invention bind to) [1]
170 (LLDSWNILI; listed as Homo sapiens) [compound 170] | ++++ (≥75% = ++++) |  | HLA-A*02:01
